Where a SMILES comes first, the peptide text is derived from it. [ ]: non-standard residue; d: D form. The star is where a group is joined. NH(Colchicin-10-yl) = COc1cc2c(c(OC)c1OC)-c1ccc(N*)c(=O)cc1[C@@H](NC(C)=O)CC2; FITC = O=C1OC2(c3ccc(O)cc3Oc3cc(O)ccc32)c2ccc(NC(=S)*)cc21; hPhe = N[C@@H](CCc1ccccc1)C(=O)O; Cit = NC(=O)NCCC[C@H](N)C(=O)O; βAla = NCCC(=O)O
Tests used:
[1] = Ex vivo stability in normal mouse plasma (LC/MS/MS); type: in vitro ADME
From the text: (§1) [drawing 10] • a) Prodrug-1 has been screened using normal mouse plasma, normal mouse liver homogenate and experimental human tumour model homogenate (HT1080 xenograft; known to express majority of MMPs) ex vivo. Prodrug cleavage and metabolism were detected using LC/MS/MS. • a. Prodrug-1 was stable in plasma and liver, supporting systemic stability of these therapeutics (FIG. 1). • b. […] Plasma, tissues and tumours were collected at regular intervals post-dosing. Levels of prodrug and VDA2 were assessed by LC/MS/MS. • a. […] (FIG. 2) • d. […] VDA2 levels were detected at high levels in tumour tissue following prodrug-1 administration (FIG. 3) • f.
(§2) [drawing 11] • d) Compound 1 was modified in order to change the MMP-targeting of the compound from being pan-MMP to MT-MMP selective (Prodrug-2) • a. Arginine was incorporated in place of the Glutamic acid at the P4 position • b. […] Prodrug-2 cleavage and metabolism were detected using LC/MS/MS. • a. […] Prodrug-2 is not cleaved by recombinant MMP-9, in contrast to prodrug-1 • d. […] Plasma, tissues and tumours were collected at regular intervals post-dosing. Levels of prodrug-2 and VDA2 were assessed by LC/MS/MS. • a. […] Liver was representative of all normal tissues analysed. (FIG. 5) • d. […] Levels of VDA2 in tumour were 10 times higher than that detected in normal tissues following administration of prodrug-2 (FIG. 6) • g. […]

[2] = Ex vivo stability in normal mouse liver homogenate (LC/MS/MS); type: in vitro ADME
From the text: as §1, §2

[3] = system: HT1080 xenograft tumour homogenate; assay: Ex vivo metabolism in experimental human tumour model homogenate (HT1080 xenograft); type: in vitro ADME
From the text: as §1, §2

[4] = Levels of prodrug and VDA2 in plasma, tissues and tumour after intraperitoneal dosing of mice bearing subcutaneous HT1080 tumour; type: in vivo; conditions: HT1080 tumour bearing mice; for prodrug tissue distribution: all tissues analysed
From the text: as §1
[drawing 11] • d) Compound 1 was modified in order to change the MMP-targeting of the compound from being pan-MMP to MT-MMP selective (Prodrug-2) • a. Arginine was incorporated in place of the Glutamic acid at the P4 position • b. […] Prodrug-2 cleavage and metabolism were detected using LC/MS/MS. • a. […] Prodrug-2 is not cleaved by recombinant MMP-9, in contrast to prodrug-1 • d. […] Plasma, tissues and tumours were collected at regular intervals post-dosing. Levels of prodrug-2 and VDA2 were assessed by LC/MS/MS. • a. […] Liver was representative of all normal tissues analysed. (FIG. 5) • d. VDA2 was undetectable in plasma following administration of prodrug-2 (FIG. 6) • e. […] Levels of VDA2 in tumour were 10 times higher than that detected in normal tissues following administration of prodrug-2 (FIG. 6) • g. High levels of prodrug-2 and VDA2 were still detectable in tumour 48 hours post administration.

SMILES	stability in plasma [1]	stability in liver homogenate [2]	metabolism in tumour homogenate ([3]; HT1080 xenograft homogenate (expresses majority of MMPs))	VDA2 levels in normal tissues following prodrug administration [4]	VDA2 levels in tumour following prodrug administration [4]	prodrug levels in the tumour compared with other tissues [4]	VDA2 level in normal tissues after 24 hours post-dosing with prodrug ([4]; 24 hours)	VDA2 level in tumour after 24 hours post-dosing with prodrug ([4]; 24 hours)	prodrug level after 24 hours post-dosing ([4]; 24 hours)	prodrug tissue distribution [4]	metabolism in tumour homogenate expressing high MT-MMP levels ([3]; HT1080 homogenate, relative to homogenate expressing low MT-MMP levels (MCF7))	VDA2 level in plasma following prodrug administration [4]	levels of VDA2 in tumour relative to normal tissues following prodrug administration [4]	VDA2 level in tumour 48 hours post prodrug administration ([4]; 48 hours)	prodrug level in tumour 48 hours post administration ([4]; 48 hours)
COc1cc2c(c(OC)c1OC)-c1ccc(NC(=O)[C@H](Cc3ccc(O)cc3)NC(=O)[C@H](CC(C)C)NC(=O)[C@H](Cc3ccc(O)cc3)NC(=O)[C@H](CCc3ccccc3)NC(=O)CNC(=O)[C@H](CCCNC(N)=O)NC(=O)[C@@H]3CCCN3C(=O)[C@H](CCC(=O)O)NC(=O)CCNC(=S)Nc3ccc4c(c3)C(=O)OC43c4ccc(O)cc4Oc4cc(O)ccc43)c(=O)cc1[C@@H](NC(C)=O)CC2 [Prodrug-1] ({FITC-βAla}-EP[Cit]G[hPhe]YLY-{NH(Colchicin-10-yl)})	stable	stable	metabolised	detectable at low levels	high levels	Highest	undetectable	still detectable at high levels	not detectable	accumulated and was detected in all tissues analysed	–	–	–	–	–
COc1cc2c(c(OC)c1OC)-c1ccc(NC(=O)[C@H](Cc3ccc(O)cc3)NC(=O)[C@H](CC(C)C)NC(=O)[C@H](Cc3ccc(O)cc3)NC(=O)[C@H](CCc3ccccc3)NC(=O)CNC(=O)[C@H](CCCNC(N)=O)NC(=O)[C@H](CO)NC(=O)[C@H](CCCNC(=N)N)NC(=O)CCNC(=S)Nc3ccc4c(c3)C(=O)OC43c4ccc(O)cc4Oc4cc(O)ccc43)c(=O)cc1[C@@H](NC(C)=O)CC2 [Prodrug-2] ({FITC-βAla}-RS[Cit]G[hPhe]YLY-{NH(Colchicin-10-yl)})	remained intact	remained stable	–	–	High concentrations	Highest	–	–	–	accumulated and was detected in all tissues analysed	metabolised rapidly	undetectable	10 times	High levels	High levels

Source: patent publication US10556014B2, “Compounds containing a vascular disrupting agent” (Incanthera Ltd, priority 2007, dated 2020)
